Measured values published in patent US12576141B2 (AlbuNext, LLC, priority 2023, dated 2026).

What was measured:
GLP-1 receptor = GLP-1 receptor (Homo sapiens, UniProt P43220); conditions: cited from earlier work
[1] = suitable for once weekly dosing; cited from earlier work
[2] = monotherapy, cited from earlier work
Cys34 of rat albumin = target: T1, Cys34 of rat albumin (Rattus norvegicus, UniProt P02770); test: electrophoresis of plasma samples from injected rats (translocation to rat albumin); type: in vivo
T1 construct: plasma samples collected from the rats that were injected s.c. and i.v; from tissue; host or cells: rat plasma (in vivo, circulating albumin)
Protocol: To further investigate the apparent inconsistencies supplementary electrophoresis experiments were conducted on the plasma samples collected from the rats that were injected s.c. and i.v. as noted above, and exemplary results are depicted in FIG. 30. As can be readily seen in the gel image, when conformationally unmodified AB-013 is tested in an electrophoresis experiment only one band is observed in the area where an albumin-exendin-4 MPA covalent construct would be observed. Completely unexpectedly, all time points taken during the experiment, including the earliest ones, had two bands in the area related to an albumin-exendin-4 MPA covalent construct.
This initial observation was further supported when a dynorphin-A-MPA peptide was injected intravenously to rats. Importantly, this dynorphin-A-MPA peptide was not conjugated to human albumin or any other type of albumin. […] In a similar fashion, the dynorphin-A-MPA peptide was also conjugated to human conformationally unmodified albumin in vitro to form a covalent bond between it and the Cys34 of human albumin. The dynorphin a human albumin covalent construct was injected intravenously to rats.

T1 sequence (P02770 25-608): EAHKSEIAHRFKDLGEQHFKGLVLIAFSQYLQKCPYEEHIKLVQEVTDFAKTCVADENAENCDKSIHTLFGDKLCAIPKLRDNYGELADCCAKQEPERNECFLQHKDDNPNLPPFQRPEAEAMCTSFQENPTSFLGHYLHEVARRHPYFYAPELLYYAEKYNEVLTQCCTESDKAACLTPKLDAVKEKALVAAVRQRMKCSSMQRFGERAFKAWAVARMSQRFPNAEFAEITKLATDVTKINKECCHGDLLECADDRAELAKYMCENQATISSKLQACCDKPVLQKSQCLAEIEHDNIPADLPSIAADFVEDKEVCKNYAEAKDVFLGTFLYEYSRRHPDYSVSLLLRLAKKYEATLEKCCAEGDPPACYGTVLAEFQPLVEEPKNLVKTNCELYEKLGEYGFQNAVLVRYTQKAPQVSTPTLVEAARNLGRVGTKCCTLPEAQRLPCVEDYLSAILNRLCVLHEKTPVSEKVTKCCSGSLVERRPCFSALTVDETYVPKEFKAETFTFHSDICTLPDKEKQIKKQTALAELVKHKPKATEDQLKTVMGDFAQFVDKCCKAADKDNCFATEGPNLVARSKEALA
GLP-1 receptor, sequence (P43220 24-463, species assumed): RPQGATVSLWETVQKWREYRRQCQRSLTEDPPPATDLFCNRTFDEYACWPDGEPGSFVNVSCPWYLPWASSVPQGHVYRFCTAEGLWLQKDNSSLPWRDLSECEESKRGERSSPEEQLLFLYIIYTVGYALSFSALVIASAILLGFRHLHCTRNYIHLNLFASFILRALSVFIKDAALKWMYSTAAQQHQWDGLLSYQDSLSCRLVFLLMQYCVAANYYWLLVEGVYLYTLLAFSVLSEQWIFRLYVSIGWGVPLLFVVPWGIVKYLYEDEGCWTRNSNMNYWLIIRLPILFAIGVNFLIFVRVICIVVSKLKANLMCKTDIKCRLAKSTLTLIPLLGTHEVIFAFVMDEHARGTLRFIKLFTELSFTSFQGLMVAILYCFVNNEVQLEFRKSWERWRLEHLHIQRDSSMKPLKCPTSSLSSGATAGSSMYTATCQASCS

Row | Substance | GLP-1 receptor affinity (GLP-1 receptor) [nM] | half-life [1] [h] | decrease in HbA1c from baseline ([2]; 30 mg weekly dose, week 52) [%] | change from baseline of HbA1c ([2]; 50 mg weekly dose) [%] | bands on electrophoresis gel in the area of the albumin covalent construct (Cys34 of rat albumin; rat plasma, all time points) | bioconjugation in vivo with rat albumin (Cys34 of rat albumin; rats, intravenous, peptide not conjugated to albumin)
1 | albiglutide: albumin fusion protein in which a tandem repeat of Gly8 GLP-1 is fused to N-terminus of human serum albumin | 20 | 140 to 190 | −0.7 | −0.9 |  | 
2 | dynorphin-A-MPA peptide: dynorphin-A-MPA peptide not conjugated to any albumin, injected for in vivo bioconjugation |  |  |  |  | only one band | did indeed occur
